How the values were obtained:
[1] = molecular target: T1, BkTauF (Bifidobacterium catenulatum, UniProt A0A0A7I0A5); assay: X-ray crystal structure, […] Å; type: binding; conditions: binary complex; nucleotide site in cleft between N- and C-terminal domains
T1 construct: gene AH68_00250; codon-optimized gene; His6-MBP-TEV-GGG fusion in E. coli BL21(DE3), tag cut by TEV protease, GGG linker before N-terminus; 375 residues seen, 41 kDa monomer, dimer; Zn2+ enzyme

[2] = molecular target: Bifidobacterium kashiwanohense TauF (sulfoacetaldehyde reductase) (Bifidobacterium kashiwanohense); assay: SEC; Superdex200 gel filtration, 5 mg/ml BkTauF, 4 ml injected, buffer C (20 mM Tris pH 7.5, 200 mM KCl, 1 mM DTT), 2 ml/min; molecular weight from the elution volume against markers
[3] = substrate: NC(=O)c1ccc[n+]([C@@H]2O[C@H](COP(=O)(O)OP(=O)(O)OC[C@H]3O[C@@H](n4cnc5c(N)ncnc54)[C@H](OP(=O)(O)O)[C@@H]3O)[C@@H](O)[C@H]2O)c1; assay: spectrophotometric NADPH formation, A340; type: biochemical, Bifidobacterium catenulatum; conditions: isethionate oxidation, 100 mM isethionate, 50 mM CAPSO pH 10.0, room temperature
Description: spectrophotometric NADPH formation, A340 on BkTauF

[4] = substrate: NC(=O)C1=CN([C@@H]2O[C@H](COP(=O)(O)OP(=O)(O)OC[C@H]3O[C@@H](n4cnc5c(N)ncnc54)[C@H](O)[C@@H]3O)[C@@H](O)[C@H]2O)C=CC1; assay: spectrophotometric NADH assay, A340; type: biochemical, Bifidobacterium catenulatum; conditions: sulfoacetaldehyde reduction; 5 mM sulfoacetaldehyde, 50 mM Tris/HCl pH 7.5, room temperature; pH 7.5
Description: (§1) spectrophotometric NADH assay, A340 on BkTauF

[5] = substrate: O=CCS(=O)(=O)O; assay: spectrophotometric NADH assay, A340; type: biochemical, Bifidobacterium catenulatum; conditions: sulfoacetaldehyde introduced as bisulfite adduct; 0.5 mM NADH, 50 mM Tris/HCl pH 7.5, room temperature; pH 7.5
Description: as §1

[6] = substrate: O=S(=O)(O)CCO; assay: spectrophotometric NADH assay, A340; type: biochemical, Bifidobacterium catenulatum; conditions: isethionate oxidation; 1 mM NAD+, 50 mM CAPSO pH 10.0, room temperature; pH 10.0
Description: as §1

[7] = substrate: NC(=O)C1=CN([C@@H]2O[C@H](COP(=O)(O)OP(=O)(O)OC[C@H]3O[C@@H](n4cnc5c(N)ncnc54)[C@H](OP(=O)(O)O)[C@@H]3O)[C@@H](O)[C@H]2O)C=CC1; assay: spectrophotometric NADPH assay, A340; type: biochemical, Bifidobacterium catenulatum; conditions: sulfoacetaldehyde reduction, 5 mM sulfoacetaldehyde, 50 mM Tris/HCl pH 7.5, room temperature
Description: spectrophotometric NADPH assay, A340 on BkTauF

[8] = substrate: NC(=O)c1ccc[n+]([C@@H]2O[C@H](COP(=O)(O)OP(=O)(O)OC[C@H]3O[C@@H](n4cnc5c(N)ncnc54)[C@H](O)[C@@H]3O)[C@@H](O)[C@H]2O)c1; assay: spectrophotometric NADH formation, A340; type: biochemical, Bifidobacterium catenulatum; conditions: isethionate oxidation, 100 mM isethionate, 50 mM CAPSO pH 10.0, room temperature
Description: spectrophotometric NADH formation, A340 on BkTauF

## NC(=O)c1ccc[n+]([C@@H]2O[C@H](COP(=O)(O)OP(=O)(O)OC[C@H]3O[C@@H](n4cnc5c(N)ncnc54)[C@H](O)[C@@H]3O)[C@@H](O)[C@H]2O)c1 [NAD^+]
[1]
  X-ray crystal structure, 3.0 Å: The electron density is well defined for NAD^+

## Bifidobacterium kashiwanohense TauF (sulfoacetaldehyde reductase) (enzyme)
[2]
  stoichiometry N: 2

B1: BkTauF (Bifidobacterium catenulatum subsp. puerorum PV20-2) (protein)
chain: MLWDYAQPVTIRFGKGRAMEIKDIAEAMGLHDGIMVTPKFFVDSGEAQRLIDASDGAVSTVFTDFSPNPDVTEVDACAEIIRKNHCEFVVAMGGGSAMDVSKAAASICLTDDSIADYHGTGKAMPQKHLPIIALPTTAGTGSEVTCVSVLTNRKLGKKAPIVSDGFFPSVAIVDPELTYSVPPKITASTGMDVLSQAIEGFWSKGHQPICDSCAAHAAKLVFKYLPIAVAEPHNEEAREKMCEASVIAGLAFTLPKTTSSHACSFPLTNIHGIPHGEACGLTLDYFARINKDAQHGRVQEFARGIGFKDVDAMADAIHDLKVRIGMRTGLKDLNLTEEQIADLVRISRHPNLYNNPVEITDDMLDTMYHYLASTD
notes: codon-optimized gene; His6-MBP-TEV-GGG fusion in E. coli BL21(DE3), tag cut by TEV protease, GGG linker before N-terminus; 375 residues seen, 41 kDa monomer, dimer; Zn2+ enzyme
[3]
  Km: 770 ± 80 µM
  kcat: 0.8 ± 0.02 s⁻¹
  kcat/Km: 1030 M⁻¹ s⁻¹
[4]
  Km: 60 ± 10 µM
  kcat: 18.7 ± 0.52 s⁻¹
  kcat/Km: 301000 M⁻¹ s⁻¹
[5]
  Km: 500 ± 40 µM
  kcat: 22.8 ± 0.68 s⁻¹
  kcat/Km: 46100 M⁻¹ s⁻¹
[6]
  Km: 4440 ± 590 µM
  kcat: 0.97 ± 0.03 s⁻¹
  kcat/Km: 218 M⁻¹ s⁻¹
[7]
  Km: 730 ± 80 µM
  kcat: 19 ± 1.13 s⁻¹
  kcat/Km: 26200 M⁻¹ s⁻¹
[8]
  Km: 80 ± 0 µM
  kcat: 1.3 ± 0.02 s⁻¹
  kcat/Km: 15800 M⁻¹ s⁻¹
